In article PMC7497631, “Role of Membrane Tension Sensitive Endocytosis and Rho GTPases in the Uptake of the Alzheimer’s Disease Peptide Aβ(1-42)” (ACS Chemical Neuroscience, 2020):

How the values were obtained:
SH-SY5Y cells [1] = conditions: cited from earlier work; for internalization in presence of inhibitors of actin polymerization: SH-SY5Y cells
Excerpt: Rho GTPases are important regulators of CIE (Figure 1).[30],[41] […] Since Cdc42 (and other Rho GTPases) regulate the actin cytoskeleton,[74] this would be consistent with our previously published result that inhibitors of actin polymerization reduced Aβ(1-40) and Aβ(1-42) but not Trf internalization in SH-SY5Y cells.[13] To f ... || We repeated this set of experiments, exploring also the Rho GTPases Rac1 and RhoA. Overexpression of EGFP-tagged Rac1 (DA Q61L, WT, and DN T17N) induced lamellipodia-like morphologies in transfected cells as expected from the literature.[74] […] The latter result is contrasting observations by ... || We report that Aβ(1-42) uptake into SH-SY5Y cells is sensitive to osmotic pressure-induced alterations in membrane tension, which points to the involvement of CLICs or macropinocytosis. Importantly, Aβ(1-42) behaves distinctively different than the CME-cargo Trf, but also dextran, which is an unspecific fluid-phase endocytosis marker.

SH-SY5Y cells [2] = assay: Cellular uptake quantified by flow cytometry during changes in membrane tension; type: cell-based, human; conditions: for cellular uptake during the recovery phase relative to uptake in isotonic media: 2 μM HF488-labeled Aβ(1-42) or 250 μg/mL AF647-labeled dextran 10 kDa, 10 min in isotonic medium after 10 min hypotonic (75% MQ), serum-free medium + 2% B-27, flow cytometry mean fluorescence, N = 8, n = 3–4; for effect of hypertonic media on uptake: addition of 100 mM NaCl to the culture medium, 2 μM HF488-Aβ(1-42), 250 μg/mL AF647-dextran 10 kDa, 10 min, flow cytometry, N = 4, n = 3–4
Excerpt: Flow cytometry was used for quantification of cellular uptake.

SH-SY5Y cells [3] = assay: Live cell confocal microscopy of uptake during changes in membrane tension; conditions: 2 μM HF488-Aβ(1-42); for internalization during hypotonic conditions: 10 min in hypotonic medium (75% MQ water, 25% cell culture medium); for internalization during hypotonic conditions / internalization during recovery (re-exposure to isotonic conditions): 250 μg/mL AF647-dextran 10 kDa or 5 μg/mL AF488-Trf; for internalization during recovery (re-exposure to isotonic conditions): 10 min in isotonic medium after 10 min hypotonic (75% MQ); for internalization under isotonic conditions: 10 min in isotonic medium, 250 μg/mL AF647-dextran 10 kDa
Procedure: SH-SY5Y cells were incubated with Aβ(1-42), Trf, and dextran 10 kDa while exposed to changes in membrane tension and analyzed by confocal microscopy and flow cytometry. For uptake at isotonic conditions, the cells were washed 1× with serum-free medium, incubated with either 2 μM HF488-labeled Aβ(1-42), 5 μg/mL AF488-labeled Trf, or 250 μg/mL AF647-labeled dextran 10 kDa in serum-free medium with the addition of 2% B-27 for 10 min, washed 1× with serum free medium for microscopy, or 3×/2 min on ice with either ice-cold serum-free medium (Aβ(1-42) and dextran) or acidic buffer (0.1 M glycine-HCl buffer pH 2.5 with 150 mM NaCl; Trf)[80] and harvested for analysis by flow cytometry. […] Lastly, cells analyzed for uptake at recovery conditions were first pretreated with isotonic medium for 10 min followed by treatment in hypotonic medium for 10 min, whereupon they were exposed to the peptides and dextran in isotonic medium for 10 min.

SH-SY5Y cells [4] = assay: Cellular uptake by flow cytometry in cells transfected with EGFP-tagged Rho GTPases (Cdc42, Rac1, RhoA); conditions: for uptake on overexpression of DA EGFP-Cdc42 Q61L relative to nontransfected cells / uptake on overexpression of WT or DN EGFP-Cdc42 relative to nontransfected cells: ~24 h post-transfection; for uptake on overexpression of DA EGFP-Cdc42 Q61L relative to nontransfected cells: 1 μM HF647-Aβ(1-42) 1 h, 5 μg/mL AF647-Trf 5 min (N = 3, n = 4) or 125 μg/ml AF647-dextran 10 kDa 1 h (n = 4); for uptake on overexpression of WT or DN EGFP-Cdc42 relative to nontransfected cells / uptake on overexpression of all variants of EGFP-tagged RhoA (DA Q63L, WT, DN T19N) relative to nontransfected cells: 1 μM HF647-Aβ(1-42) 1 h or 5 μg/mL AF647-Trf 5 min; for uptake on overexpression of EGFP-tagged Rac1 (DA Q61L, WT, DN T17N) relative to nontransfected cells: 1 μM HF647-Aβ(1-42) 1 h (N = 3, n = 4) or 125 μg/ml AF647-dextran 10 kDa 1 h (n = 4); for uptake on overexpression of all variants of EGFP-tagged RhoA (DA Q63L, WT, DN T19N) relative to nontransfected cells: ~30 h post-transfection, N = 4, n = 4
Procedure: SH-SY5Y cells were passaged 2 days prior to transfection, grown to ∼70% confluency, and transfected with plasmids encoding for Rho GTPases (EGFP-tagged DA, WT, and DN variants of Cdc42, Rac1, and RhoA; see the above section Reagents) by electroporation using a Neon Transfection System (Invitrogen, Carlsbad, CA), following the protocol provided by the manufacturer and applying a single pulse of 1 100 V with a pulse width of 50 ms. The cells were transfected using 1 μg of plasmid DNA/100 000 cells in a 10 μL Neon Tip or 10 μg of plasmid DNA/10^6 cells in a 100 μL Neon Tip and plated immediately after. Based on the initial experiments, the analysis was set to ∼24 h, ∼27 h, and ∼30 h post-transfection for Cdc42, Rac1, and RhoA, respectively, by evaluating the time it took until the cells expressed the proteins and adapted the expected morphologies.
Flow cytometry was used for quantification of cellular uptake. […] All samples were kept on ice until they were analyzed on a Guava EasyCyte 8HT (Millipore, Darmstadt, Germany) that automatically retrieves samples from a 96-well plate. In order to exclude effects due to difference in delay time, we used mixed order of analysis, loading only a few samples at a time with the remaining samples kept on ice. Only the central cell cluster on the forward/side scatter (FSC/SSC) dot plot was analyzed, and for each sample 5 000 cells from within the gate were counted. […] The mean cellular uptake or level of Rho GTPase expression was estimated as the average fluorescence intensity of all cells within the gate. The mean cellular uptake was baseline corrected by subtracting the signal recorded for untreated cells. Each cell treatment was performed in three or four technical replicates (n = 3–4) and repeated on at least two separate occasions (N ≥ 2).
Statistical analysis was performed by matched sample ANOVA using GraphPad Prism software (GraphPad, San Diego, CA) on data that had been normalized so that the uptake in nontransfected cells was 100% for the individual experiments. Matched sample ANOVA was followed by multiple comparisons with the Bonferroni posthoc test to test for differences in mean peptide uptake between nontransfected cells and uptake at the different transfection efficiencies. This means that the reported individual p-values have been adjusted for the number of comparisons that were relevant to the experiment.

Compound | effect of macropinocytosis inhibitor on the uptake of Aβ(1-40) and Aβ(1-42) (SH-SY5Y cells [1]) | internalization in presence of inhibitors of actin polymerization (SH-SY5Y cells [1]) | cellular uptake during the recovery phase relative to uptake in isotonic media (SH-SY5Y cells [2]) | effect of hypertonic media on uptake (SH-SY5Y cells [2]) | internalization during hypotonic conditions (SH-SY5Y cells [3]) | internalization during recovery (re-exposure to isotonic conditions) (SH-SY5Y cells [3]) | internalization under isotonic conditions (SH-SY5Y cells [3]) | uptake on overexpression of DA EGFP-Cdc42 Q61L relative to nontransfected cells (SH-SY5Y cells [4]) | uptake on overexpression of WT or DN EGFP-Cdc42 relative to nontransfected cells (SH-SY5Y cells [4]; N = 3, n = 4) | uptake on overexpression of EGFP-tagged Rac1 (DA Q61L, WT, DN T17N) relative to nontransfected cells (SH-SY5Y cells [4]; ~27 h post-transfection) | uptake on overexpression of all variants of EGFP-tagged RhoA (DA Q63L, WT, DN T19N) relative to nontransfected cells (SH-SY5Y cells [4]) | other results
Oc1ccc2ccccc2c1SSc1c(O)ccc2ccccc12 [IPA-3] | reductions | – | – | – | – | – | – | – | – | – | – | –
COC[C@H]1OC(=O)c2coc3c2[C@@]1(C)C1=C(C3=O)[C@@H]2CCC(=O)[C@@]2(C)C[C@H]1OC(C)=O [wortmannin] | reductions | – | – | – | – | – | – | – | – | – | – | –
Aβ(1-40): Amyloid-β isoform; uptake results quoted from the authors' earlier work | – | reduced | – | – | – | – | – | – | – | – | – | –
Aβ(1-42): Synthetic Aβ(1-42) peptide, conjugated to the HiLyte Fluor HF488 or HF647 at the N-terminus, from Anaspec; applied in highly monomeric form | – | reduced | doubles | did not increase | little or no internalization | resumed to internalize | formation of small endosomal vesicles containing Aβ(1-42) was observed | reduced | no effect | None of the Rac1 variants had any effect | reduced | internalization by NIH-3T3 fibroblasts compared with CHO and SH-SY5Y (SH-SY5Y cells [1]): more
Trf: AlexaFluor488- and AlexaFluor647-labeled Transferrin, ligand of clathrin-mediated endocytosis | – | not | – | – | blocked | remained low | – | reduced | no effect | – | reduced | uptake in cells with the highest concentration of WT and DN Rac1 (SH-SY5Y cells [4]; ~27 h post-transfection, 5 μg/mL AF488-labeled Trf 5 min, high gate, N = 3, n = 4): reduction; uptake in cells with medium expression level of DA Rac1 versus control (SH-SY5Y cells [4]; ~27 h post-transfection, 5 μg/mL AF488-labeled Trf 5 min, medium gate, N = 3, n = 4): slightly more
dextran | – | – | ~8 times | did not increase | little or no internalization | induced | low | unaffected | – | did not alter | – | reduction of uptake in cells expressing DA RhoA (SH-SY5Y cells [4]; ~30 h post-transfection with RhoA Q63L, 125 μg/ml AF647-labelled dextran 10 kDa 1 h, n = 4): up to 50%
